The text below walks through data of patent US11278600B2, “Human alpha-galactosidase variants” (Codexis, Inc., priority 2014, dated 2022).

Changes are numbered by the printed parent chain.

The chains are these.
B1: 305 (protein)
chain: LDNGLARTPTMGWLHWERFMCNLDCQEEPDSCISEKLFMEMAELMVSEGWKDAGYEYLCIDDCWMAPQRDSEGRLQADPQRFPHGIRQLANYVHSKGLKLGIYADVGNKTCAGFPGSFGYYDIDAQTFADWGVDLLKFDGCYCDSLENLADGYKHMSLALNRTGRSIVYSCEWPLYMWPFQKPNYTEIRQYCNHWRNFADIDDSWASIKSILDWTSFNQERIVDVAGPGGWNDPDMLVIGNFGLSWNQQVTQMALWAIMAAPLFMSNDLRHISPQAKALLQDKDVIAINQDPLGKQGYQLRKGDNFEVWERPLSGDAWAVAIINRQEIGGPRSYTIPVASLGKGVACNPACFITQLLPVKRKLGFYNWSSRLKSHINPTGTVLLQLENTMQMSLKDLL
modifications: Synthetic Polypeptide sequence of Variant No. 305 of mature Human GLA
B2: 315 (protein)
chain: B1 chain with L100F, I208V, D316L, I322V, P337A, F365L, S369T, I376V
modifications: Synthetic Polypeptide sequence of Variant No. 315 of mature Human GLA
B3: 314 (protein)
chain: B1 chain with L100F, I208V, N247D, D316L, I322V, P337A, K343D, S369T, I376V
modifications: Synthetic Polypeptide sequence of Variant No. 314 of mature Human GLA
B4: 309 (protein)
chain: B1 chain with K96I, F217R, N247D, D316L, K343G, A350G, S369T
modifications: Synthetic Polypeptide sequence of Variant No. 309 of mature Human GLA
B5: 307 (protein)
chain: B1 chain with R221K, D316L, P337A, K343G, I376V
modifications: Synthetic Polypeptide sequence of Variant No. 307 of mature Human GLA
B6: 308 (protein)
chain: B1 chain with K96I, F217R, K302Q, D316L, P337A
modifications: Synthetic Polypeptide sequence of Variant No. 308 of mature Human GLA
B7: 312 (protein)
chain: B1 chain with K96I, N247D, A350G, K362Q, S369T
modifications: Synthetic Polypeptide sequence of Variant No. 312 of mature Human GLA
B8: 313 (protein)
chain: B1 chain with L100F, A125S, I208V, R221K, D316L, P337A, K343G, S369T
modifications: Synthetic Polypeptide sequence of Variant No. 313 of mature Human GLA
B9: 306 (protein)
chain: B1 chain with R221K, N247D, D316L, P337A, S369T
modifications: Synthetic Polypeptide sequence of Variant No. 306 of mature Human GLA
B10: 311 (protein)
chain: B1 chain with K96I, N247D, A350G
modifications: Synthetic Polypeptide sequence of Variant No. 311 of mature Human GLA
B11: 310 (protein)
chain: B1 chain with K96I, N247D, K302Q, D316L, P337A, A350G
modifications: Synthetic Polypeptide sequence of Variant No. 310 of mature Human GLA

The nature of the first data set: HTP-analysis of yeast culture supernatants, no challenge (MUGal hydrolysis). It counts as biochemical. The note with it: activity of the variant/activity of Rd3BB (SEQ ID NO: 13), yeast culture supernatant. A digest of the protocol:
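GLA variants were expressed in INVSc1 yeast grown in SD-Ura broth with glucose at 30° C., and culture supernatants were collected after 66-84 h. Supernatant was mixed with McIlvaine buffer pH 4.8 and MUGal (2 mM stock) in 50 mM citrate, 200 mM KCl, pH 4.6, incubated at 37° C. for 30-180 minutes, then quenched with sodium carbonate.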
Regarding B1, the “Relative Activity of GLA Variants After No Challenge (NC)” value was “+ (+ = 0.5 to 1.5 relative activity over Rd3BB (SEQ ID NO: 13))”.
For B2, the “Relative Activity of GLA Variants After No Challenge (NC)” value is listed as “+ (+ = 0.5 to 1.5 relative activity over Rd3BB (SEQ ID NO: 13))”.
Consider B3, for which the “Relative Activity of GLA Variants After No Challenge (NC)” value was “+ (+ = 0.5 to 1.5 relative activity over Rd3BB (SEQ ID NO: 13))”.
Regarding B4, the “Relative Activity of GLA Variants After No Challenge (NC)” value is “+ (+ = 0.5 to 1.5 relative activity over Rd3BB (SEQ ID NO: 13))”.
With B5, the “Relative Activity of GLA Variants After No Challenge (NC)” value was “+ (+ = 0.5 to 1.5 relative activity over Rd3BB (SEQ ID NO: 13))”.
With B6, the “Relative Activity of GLA Variants After No Challenge (NC)” value is listed as “− (− = <0.5 relative activity to Rd3BB (SEQ ID NO: 13))”.
As for B7, the “Relative Activity of GLA Variants After No Challenge (NC)” value is “++ (++ = >1.5 to 2.5 relative activity over Rd3BB (SEQ ID NO: 13))”.
B8: the “Relative Activity of GLA Variants After No Challenge (NC)” value is “+ (+ = 0.5 to 1.5 relative activity over Rd3BB (SEQ ID NO: 13))”.
On to B9, for which the “Relative Activity of GLA Variants After No Challenge (NC)” value is recorded as “+ (+ = 0.5 to 1.5 relative activity over Rd3BB (SEQ ID NO: 13))”.
Consider B10, for which the “Relative Activity of GLA Variants After No Challenge (NC)” value is “+ (+ = 0.5 to 1.5 relative activity over Rd3BB (SEQ ID NO: 13))”.
As to B11, the “Relative Activity of GLA Variants After No Challenge (NC)” value is listed as “− (− = <0.5 relative activity to Rd3BB (SEQ ID NO: 13))”.

The next data set in a line: HTP-analysis of supernatants pretreated with acid (MUGal hydrolysis). It is filed as biochemical. Conditions: challenge at pH 4.0; activity of the variant/activity of Rd3BB (SEQ ID NO: 13); yeast culture supernatant. The method in brief: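 Supernatants from INVSc1 yeast secreting GLA variants were challenged at 37° C. for 1-3 h in McIlvaine buffer at pH 3.3-4.3. Residual activity was then measured on 4 mM MUGal substrate stock at pH 4.8 with citrate buffer pH 4.3, over 30-180 min at 37° C. Reactions were quenched with sodium carbonate and read by fluorescence (Ex 355/Em 448 nm).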
B1: the “Relative Activity of GLA Variants After Challenge at pH 4.0” value (from here on “Relative Activity … at pH 4.0”) is recorded as “+ (+ = 0.5 to 1.5 relative activity over Rd3BB (SEQ ID NO: 13))”.
In the case of B2, the “Relative Activity … at pH 4.0” value is listed as “+ (+ = 0.5 to 1.5 relative activity over Rd3BB (SEQ ID NO: 13))”.
B3: the “Relative Activity … at pH 4.0” value is “++ (++ = >1.5 to 2.5 relative activity over Rd3BB (SEQ ID NO: 13))”.
With B4, the “Relative Activity … at pH 4.0” value is reported as “++ (++ = >1.5 to 2.5 relative activity over Rd3BB (SEQ ID NO: 13))”.
For B5, the “Relative Activity … at pH 4.0” value is given as “+ (+ = 0.5 to 1.5 relative activity over Rd3BB (SEQ ID NO: 13))”.
As for B6, the “Relative Activity … at pH 4.0” value is recorded as “− (− = <0.5 relative activity to Rd3BB (SEQ ID NO: 13))”.
On the same count and under the same terms, under B7 stands “+++ (+++ = >2.5 relative activity over Rd3BB (SEQ ID NO: 13))”.
In the case of B8, the “Relative Activity … at pH 4.0” value is listed as “+ (+ = 0.5 to 1.5 relative activity over Rd3BB (SEQ ID NO: 13))”.
On the same count and under the same terms, under B9 stands “++ (++ = >1.5 to 2.5 relative activity over Rd3BB (SEQ ID NO: 13))”; under B10, “+ (+ = 0.5 to 1.5 relative activity over Rd3BB (SEQ ID NO: 13))”; under B11, “+ (+ = 0.5 to 1.5 relative activity over Rd3BB (SEQ ID NO: 13))”.

A short description of the next data set: HTP-analysis of supernatants pretreated with base (MUGal hydrolysis). It counts as biochemical. The note with it: challenge at pH 8.2; activity of the variant/activity of Rd3BB (SEQ ID NO: 13); yeast culture supernatant. The method in brief: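 GLA variants secreted from yeast INVSc1; culture supernatants pre-incubated with McIlvaine buffer pH 7.0–8.2 or 200 mM bicarbonate pH 9.1–9.7 at 37° C. for 1–18 h. Residual activity: MUGal (4 mM stock) hydrolysis at pH 4.3–4.8, 37° C., 30–180 min, carbonate quench; fluorescence Ex 355/Em 448 nm.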
Turning to B1, the “Relative Activity of GLA Variants After Challenge at pH 8.2” value (from here on “Relative Activity … at pH 8.2”) is given as “+ (+ = 0.5 to 1.5 relative activity over Rd3BB (SEQ ID NO: 13))”.
For the molecule B2, the “Relative Activity … at pH 8.2” value is “+ (+ = 0.5 to 1.5 relative activity over Rd3BB (SEQ ID NO: 13))”.
Regarding B3, the “Relative Activity … at pH 8.2” value was “++ (++ = >1.5 to 2.5 relative activity over Rd3BB (SEQ ID NO: 13))”.
As to B4, the “Relative Activity … at pH 8.2” value is “+++ (+++ = >2.5 relative activity over Rd3BB (SEQ ID NO: 13))”.
Turning to B5, the “Relative Activity … at pH 8.2” value was “+ (+ = 0.5 to 1.5 relative activity over Rd3BB (SEQ ID NO: 13))”.
For B6, the “Relative Activity … at pH 8.2” value is “− (− = <0.5 relative activity to Rd3BB (SEQ ID NO: 13))”.
Take B7: the “Relative Activity … at pH 8.2” value is “+++ (+++ = >2.5 relative activity over Rd3BB (SEQ ID NO: 13))”.
Regarding B8, the “Relative Activity … at pH 8.2” value is recorded as “− (− = <0.5 relative activity to Rd3BB (SEQ ID NO: 13))”.
B9: the “Relative Activity … at pH 8.2” value is listed as “++ (++ = >1.5 to 2.5 relative activity over Rd3BB (SEQ ID NO: 13))”.
B10: the “Relative Activity … at pH 8.2” value was “++ (++ = >1.5 to 2.5 relative activity over Rd3BB (SEQ ID NO: 13))”.
The same measure, in the same setting: under B11 stands “+ (+ = 0.5 to 1.5 relative activity over Rd3BB (SEQ ID NO: 13))”.

The next data set can be described thus: HTP-analysis of supernatants pretreated with bovine serum (MUGal hydrolysis). It counts as biochemical. Conditions: activity of the variant/activity of Rd3BB (SEQ ID NO: 13), yeast culture supernatant. The method in brief:
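Yeast INVSc1 culture supernatants containing secreted GLA variants were mixed with bovine serum (20:80) and held 1 h at 37° C. Serum-treated samples then reacted with MUGal (4 mM stock) in citrate/McIlvaine buffer (pH 4.3/4.8) for 180 min at 37° C., were quenched with sodium carbonate, and read by fluorescence (Ex 355, Em 448 nm).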
For B1, the “Relative Activity of GLA Variants After Challenge with Serum” value (“Relative Activity … with Serum” for short) is “++ (++ = >1.5 to 2.5 relative activity over Rd3BB (SEQ ID NO: 13))”.
Turning to B2, the “Relative Activity … with Serum” value is recorded as “+ (+ = 0.5 to 1.5 relative activity over Rd3BB (SEQ ID NO: 13))”.
On to B3, for which the “Relative Activity … with Serum” value is recorded as “+ (+ = 0.5 to 1.5 relative activity over Rd3BB (SEQ ID NO: 13))”.
On the same count and under the same terms, under B4 stands “++ (++ = >1.5 to 2.5 relative activity over Rd3BB (SEQ ID NO: 13))”; under B5, “+ (+ = 0.5 to 1.5 relative activity over Rd3BB (SEQ ID NO: 13))”.
On to B6, for which the “Relative Activity … with Serum” value is “+ (+ = 0.5 to 1.5 relative activity over Rd3BB (SEQ ID NO: 13))”.
Regarding B7, the “Relative Activity … with Serum” value is “+++ (+++ = >2.5 relative activity over Rd3BB (SEQ ID NO: 13))”.
In the case of B8, the “Relative Activity … with Serum” value was “+ (+ = 0.5 to 1.5 relative activity over Rd3BB (SEQ ID NO: 13))”.
With B9, the “Relative Activity … with Serum” value was “++ (++ = >1.5 to 2.5 relative activity over Rd3BB (SEQ ID NO: 13))”.
On the same count and under the same terms, under B10 stands “+ (+ = 0.5 to 1.5 relative activity over Rd3BB (SEQ ID NO: 13))”; under B11, “+ (+ = 0.5 to 1.5 relative activity over Rd3BB (SEQ ID NO: 13))”.
